Key:
Assay in all cases: SPR (Biacore), PEP07843 immobilized, analyte protein injected
[1] = biological target: Alpha-1-antitrypsin (SERPINA1 Human) (human, UniProt P01009 25-418)
Procedure: (§1) In the binding experiment, HBS-EP was used as running buffer and the flow rate was 30 μl/min. […] The analytes, i.e. the panels of 24 or 12 different proteins, were each diluted in HBS-EP or HBS-EP supplemented with 500 mM NaCl to final concentrations of from 0.4 to 250 nM and injected for 5 min. […] The results were analyzed using the BiaEvaluation software.
(§2) The Z-ABD-Z polypeptides were injected over surfaces containing HSA followed by injection of the analyte proteins.

[2] = biological target: T1, Alpha-2-HS-glycoprotein (AHSG Human HEK) (human, UniProt P02765 19-367, limits assumed)
T1 sequence (looked up): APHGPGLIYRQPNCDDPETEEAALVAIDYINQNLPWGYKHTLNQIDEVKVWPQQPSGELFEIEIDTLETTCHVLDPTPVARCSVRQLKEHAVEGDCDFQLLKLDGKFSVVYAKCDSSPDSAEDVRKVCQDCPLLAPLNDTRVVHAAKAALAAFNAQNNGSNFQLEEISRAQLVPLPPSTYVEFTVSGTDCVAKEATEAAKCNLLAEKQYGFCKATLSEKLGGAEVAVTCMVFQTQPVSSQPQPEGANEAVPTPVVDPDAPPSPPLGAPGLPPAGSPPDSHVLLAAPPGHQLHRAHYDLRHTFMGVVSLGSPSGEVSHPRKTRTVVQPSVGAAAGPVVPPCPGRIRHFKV
Procedure: as §1, §2

[3] = biological target: T2, AMBP/Alpha1 microglobulin (UniProt P02760 20-203, limits assumed)
T2 sequence (looked up): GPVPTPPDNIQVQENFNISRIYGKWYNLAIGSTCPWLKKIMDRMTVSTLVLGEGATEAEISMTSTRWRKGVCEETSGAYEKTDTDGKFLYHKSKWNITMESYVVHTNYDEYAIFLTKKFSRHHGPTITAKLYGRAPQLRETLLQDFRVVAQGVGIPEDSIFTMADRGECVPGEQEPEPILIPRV
Procedure: as §1, §2

IL-1R1 = biological target: T3, IL-1R1 (UniProt P14778 18-332, limits assumed)
T3 sequence (looked up): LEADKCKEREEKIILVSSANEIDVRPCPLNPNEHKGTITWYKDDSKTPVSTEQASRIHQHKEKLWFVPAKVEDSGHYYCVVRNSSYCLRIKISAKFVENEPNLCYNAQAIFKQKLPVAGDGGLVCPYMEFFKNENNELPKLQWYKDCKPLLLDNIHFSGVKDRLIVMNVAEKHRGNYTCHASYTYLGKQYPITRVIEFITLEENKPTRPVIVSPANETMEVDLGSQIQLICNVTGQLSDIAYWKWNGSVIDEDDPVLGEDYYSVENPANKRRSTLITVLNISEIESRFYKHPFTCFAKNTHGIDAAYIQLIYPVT
Procedure: as §1, §2

Measured: binding result

Alpha-1-antitrypsin (SERPINA1 Human), sequence (P01009 25-418 limits assumed): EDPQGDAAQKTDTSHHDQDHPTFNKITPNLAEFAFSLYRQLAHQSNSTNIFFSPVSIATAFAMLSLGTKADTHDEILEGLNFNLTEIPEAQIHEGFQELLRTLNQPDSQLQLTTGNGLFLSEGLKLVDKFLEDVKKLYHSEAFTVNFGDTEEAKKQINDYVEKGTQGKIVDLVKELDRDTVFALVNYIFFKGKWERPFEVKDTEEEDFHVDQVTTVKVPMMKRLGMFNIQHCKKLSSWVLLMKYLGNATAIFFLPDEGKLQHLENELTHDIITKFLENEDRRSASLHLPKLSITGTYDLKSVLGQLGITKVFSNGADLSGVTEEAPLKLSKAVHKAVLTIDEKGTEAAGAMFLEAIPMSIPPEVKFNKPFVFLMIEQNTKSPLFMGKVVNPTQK

GSSLAEAKEAANAELDSYGVSDFYKRLIDKAKTVEGVEALKDAILAALP (designed binder) [ABD variant PEP07843]
no binding (tested: 50, 250 nM): [1] | [2] | [3] | IL-1R1

From US20250101074A1 (Affibody, published 2025)
